Experimental findings from patent KR20220134462A (dated 2022) are described below.

Assay [1] has as its target T1, MCF-7 세포주의 세포막에 발현된 B7-H3 (UniProt Q5ZPR3 29-534).
T1 construct: whole, on cells; Endogenous B7-H3 of the MCF-7 cell line; also called MCF-7 cell
T1 sequence (looked up): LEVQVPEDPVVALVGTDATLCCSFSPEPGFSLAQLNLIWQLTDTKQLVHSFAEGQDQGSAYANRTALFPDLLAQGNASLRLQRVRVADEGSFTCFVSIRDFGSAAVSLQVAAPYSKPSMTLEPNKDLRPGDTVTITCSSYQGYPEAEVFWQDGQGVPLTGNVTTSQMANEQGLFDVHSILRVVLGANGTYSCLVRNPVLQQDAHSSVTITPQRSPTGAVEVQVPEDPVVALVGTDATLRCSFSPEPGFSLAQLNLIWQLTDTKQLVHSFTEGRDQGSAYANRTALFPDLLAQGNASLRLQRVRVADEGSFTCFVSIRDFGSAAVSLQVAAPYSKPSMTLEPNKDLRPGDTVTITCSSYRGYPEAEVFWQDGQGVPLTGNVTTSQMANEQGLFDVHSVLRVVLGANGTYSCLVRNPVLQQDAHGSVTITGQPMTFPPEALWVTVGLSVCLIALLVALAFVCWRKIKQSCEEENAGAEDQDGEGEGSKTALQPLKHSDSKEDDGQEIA
The assay can be described thus: cell ELISA on fixed MCF-7 cells (표 2). A general note: An ELISA detects its analyte on a solid surface through an enzyme-linked reagent.

The target of a further assay is RKO/B7H3 세포주에 과발현된 B7-H3 (UniProt Q5ZPR3). The assay can be described thus: cell ELISA on fixed RKO/B7H3 cells (표 3).

Usually EC50 stands for the concentration giving half of the maximal effect. Read a high EC50 as weaker potency.

B1: #7 항체 (B7-H3 항체) (antibody, V domains shown)
VH: EVQLLESGGGLVQPGGSLRLSCAASGFTFSNFWIGWVRQAPGKGLEWVSWINPPGSITSYADSVKGRFTISRDNSKDTLYLQMNSLRAEDTAVYYCAREVGDVLDYWGQGTLVTVSS
VL: QSVLTQPPSASGTPGQRVTISCTGTSSDIGRYNYVSWYQQLPGTAPKLLIYRNTQRPSGVPDRFSGSKSGTSASLAISGLRSEDEADYYCGTWDSSLNAYVFGGGTKLTVL
For the molecule B1, the EC50 in assay [1] was determined as 1.01 nM; with RKO/B7H3 세포주에 과발현된 B7-H3, 0.187 nM.

B2: #5 항체 (B7-H3 항체) (antibody, V domains shown)
VH: EVQLLESGGGLVQPGGSLRLSCAASGFTFSTYAMSWVRQAPGKGLEWVSAISGSGGSTLYADSVKGRFTISRDNSKNTLYLQMNSLRAEDTAVYYCARGGSATWAFDLWGQGTLVTVSS
VL: QSVLTQPPSASGTPGQRVTISCSGSSSNIGSNYVYWYQQLPGTAPKLLIYRNNQRPSGVPDRFSGSKSGTSASLAISGLRSEDEADYYCGTWDSSLSGVVFGGGTKLTVL
B2: the concentration giving a half-maximal response (EC50) in assay [1] worked out at 1.74 nM; in the assay with RKO/B7H3 세포주에 과발현된 B7-H3 it was 0.091 nM.

B3: #1 항체 (B7-H3 항체) (antibody, V domains shown)
VH: EVQLLESGGGLVQPGGSLRLSCAASGFTFSSYAMSWVRQAPGKGLEWVSTITGSGGSTYYADSVKGRFTISRDNSKNTLYLQMNSLRAEDTAVYYCARYKSGAFDIWGQGTLVTVSS
VL: EIVLTQSPGTLSLSPGERATLSCRASQGIGNYLGWYQQKPGQAPRLLIYTASSLQSGIPDRFSGSGSGTDFTLTISRLEPEDFAVYYCQQGYSTPSWTFGQGTKVEIK
As for B3, the values for the EC50 (in assay [1]; with RKO/B7H3 세포주에 과발현된 B7-H3) were 0.605 nM and 0.015 nM, respectively.

B4: #3 항체 (B7-H3 항체) (antibody, V domains shown)
VH: EVQLLESGGGLVQPGGSLRLSCAASGFTFSTYYMTWVRQAPGKGLEWVSIINPRGGSTSYAEKFQGRFTISRDNSKNTLYLQMNSLRAEDTAVYYCARWNLGMDVWGQGTLVTVSS
VL: EIVLTQSPGTLSLSPGERATLSCRVSQSISSYLNWYQQKPGQAPRLLIYDASHRATGIPDRFSGSGSGTDFTLTISRLEPEDFAVYYCQQYYAPSVTFGQGTKVEIK
For the molecule B4, the EC50 is 0.197 nM in assay [1] and 0.065 nM in the assay with RKO/B7H3 세포주에 과발현된 B7-H3.

B5: #6 항체 (B7-H3 항체) (antibody, V domains shown)
VH: EVQLLESGGGLVQPGGSLRLSCAASGFTFSTYAISWVRQAPGKGLEWVSSIYYSGYTHYNPSLESRFTISRDNSKNTLYLQMNSLRAEDTAVYYCARGYSGWMDVWGQGTLVTVSS
VL: QSVLTQPPSASGTPGQRVTISCGGNNIGSKSVHWYQQLPGTAPKLLIYDNNKRPSGVPNRFSGSKSGTSASLAISGLRSEDEADYYCAAWDDSLNVPVFGGGTKLTVL
With B5, the EC50 in assay [1] is 0.234 nM; with RKO/B7H3 세포주에 과발현된 B7-H3 it was 0.065 nM.

B6: #9 항체 (B7-H3 항체) (antibody, V domains shown)
VH: EVQLLESGGGLVQPGGSLRLSCAASGFTFSSYAMNWVRQAPGKGLEWVSTISGSGGQTYYADSVKGRFTISRDNSKNTLYLQMNSLRAEDTAVYYCARWRSIWAFDYWGQGTLVTVSS
VL: QSVLTQPPSASGTPGQRVTISCSDNNIGSKSVHWYQQLPGTAPKLLIYDNNKRPSGVPDRFSGSKSGTSASLAISGLRSEDEADYYCGTWDDSLSGPVFGGGTKLTVL
For the molecule B6, the values for the EC50 (in assay [1]; with RKO/B7H3 세포주에 과발현된 B7-H3) were 0.322 nM and 0.05 nM, respectively.

B7: #2 항체 (B7-H3 항체) (antibody, V domains shown)
VH: EVQLLESGGGLVQPGGSLRLSCAASGFTFSAYYMIWVRQAPGKGLEWVSITNPSGGVTSYAQKFQGRFTISRDNSKNTLYLQMNSLRAEDTAVYYCARVGGRGFDIWGQGTLVTVSS
VL: EIVLTQSPGTLSLSPGERATLSCHASQGISNYVAWYQQKPGQAPRLLIYDASNRATGIPDRFSGSGSGTDFTLTISHLEPEDFAVYYCQQSYSTLLTFGQGTKVEIK
Turning to B7, the EC50 in assay [1] came to 0.061 nM; with RKO/B7H3 세포주에 과발현된 B7-H3 it was 0.036 nM.

B8: #4 항체 (B7-H3 항체) (antibody, V domains shown)
VH: EVQLLESGGGLVQPGGSLRLSCAASGFTFSSYGMHWVRQAPGKGLEWVSAISGSGTSIYYANSVKSRFTISRDNSKNTLYLQMNSLRAEDTAVYYCARGAGWFDYWGQGTLVTVSS
VL: QSVLTQPPSASGTPGQRVTISCSGSTSNIGSNTVNWYQQLPGTAPKLLIYGKNIRPNGVPDRFSGSKSGTSASLAISGLHSEDEADYYCQSYDSSLSGWVFGGGTKLTVL
In the case of B8, the EC50 in assay [1] worked out at 0.502 nM; with RKO/B7H3 세포주에 과발현된 B7-H3 it was 0.042 nM.

B9: #8 항체 (B7-H3 항체) (antibody, V domains shown)
VH: EVQLLESGGGLVQPGSSLRLSCAASGFTFSSYWISWVRQAPGKGLEWVSEISPSGNTNYNPSLKSRFTISRDNSKNTLYLQMNSLRAEDTAVYYCAREVGDLLDYWGQGTLVTVSS
VL: QSVLTQPPSASGTPGQRVTISCSGSNIGNNYVSWYQQLPGTAPKLLIYQDSKRPSGVPDRFSGSKSGTSASLAISGLRSEDEADYYCLVWDRSSDHFVFGGGTKLTVL
As for B9, the values for the EC50 (in assay [1]; with RKO/B7H3 세포주에 과발현된 B7-H3) were 0.159 nM and 0.06 nM, respectively.
